These results are taken from patent US6977175 (MIT, dated 2005).

The chains are these.
T1: LIN-15B protein (C. elegans, UniProt Q27395 1-1440, limits assumed)
T1 construct: Tested in a yeast two-hybrid assay; The fusion partners and construct limits are not described
T1 sequence (looked up): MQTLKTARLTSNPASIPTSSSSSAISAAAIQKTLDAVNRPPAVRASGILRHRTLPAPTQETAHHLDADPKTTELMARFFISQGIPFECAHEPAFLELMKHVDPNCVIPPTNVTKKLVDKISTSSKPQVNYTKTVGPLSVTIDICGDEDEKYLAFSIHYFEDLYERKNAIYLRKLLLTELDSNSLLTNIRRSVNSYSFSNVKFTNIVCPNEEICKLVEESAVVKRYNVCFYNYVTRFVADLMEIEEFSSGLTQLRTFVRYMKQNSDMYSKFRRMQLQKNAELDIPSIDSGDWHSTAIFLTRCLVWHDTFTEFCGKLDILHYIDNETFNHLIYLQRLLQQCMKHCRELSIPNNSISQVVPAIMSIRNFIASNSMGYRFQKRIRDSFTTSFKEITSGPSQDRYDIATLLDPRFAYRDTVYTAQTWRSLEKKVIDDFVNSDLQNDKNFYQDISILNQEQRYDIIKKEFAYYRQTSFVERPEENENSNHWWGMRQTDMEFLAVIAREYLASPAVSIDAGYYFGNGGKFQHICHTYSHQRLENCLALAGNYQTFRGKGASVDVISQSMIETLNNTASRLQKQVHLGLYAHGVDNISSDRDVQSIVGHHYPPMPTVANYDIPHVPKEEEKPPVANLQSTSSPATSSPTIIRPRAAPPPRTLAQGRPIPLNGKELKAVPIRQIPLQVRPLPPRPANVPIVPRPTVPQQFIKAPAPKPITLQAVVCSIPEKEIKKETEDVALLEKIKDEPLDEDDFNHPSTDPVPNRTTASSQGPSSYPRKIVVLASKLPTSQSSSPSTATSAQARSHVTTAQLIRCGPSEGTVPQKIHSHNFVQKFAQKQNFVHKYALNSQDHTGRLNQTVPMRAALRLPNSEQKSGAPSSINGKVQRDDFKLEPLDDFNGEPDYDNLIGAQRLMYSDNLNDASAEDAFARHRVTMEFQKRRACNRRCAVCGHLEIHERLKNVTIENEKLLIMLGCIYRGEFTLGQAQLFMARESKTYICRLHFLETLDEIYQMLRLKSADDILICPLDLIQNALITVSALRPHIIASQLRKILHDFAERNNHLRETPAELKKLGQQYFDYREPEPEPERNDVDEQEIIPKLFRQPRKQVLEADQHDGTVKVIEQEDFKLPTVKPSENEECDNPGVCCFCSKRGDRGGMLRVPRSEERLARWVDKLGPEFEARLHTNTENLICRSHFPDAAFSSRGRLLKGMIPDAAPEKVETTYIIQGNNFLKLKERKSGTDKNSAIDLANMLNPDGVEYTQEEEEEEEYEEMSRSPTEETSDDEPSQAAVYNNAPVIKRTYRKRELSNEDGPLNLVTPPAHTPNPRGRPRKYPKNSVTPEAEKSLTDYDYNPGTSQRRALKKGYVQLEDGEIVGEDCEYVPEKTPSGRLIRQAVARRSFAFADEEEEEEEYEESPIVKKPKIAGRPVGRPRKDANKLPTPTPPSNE

B1: LIN-9 protein (other, C. elegans, UniProt P30630 1-644, looked up)
chain: MSSAVRSPRKKAASDTSDPDRTSSPYSLRETSKVPSRYRNEELYLSPSRSIKRTGSPKKSPAKRLNGGRDSPSVNSLTRNSSLTMLAKAALDYESSSCALEYIFQPKEERRPPRRALALSPPPAPSNDLLAKDLEMIEMHQNLVAGLDDLDNPANMTNEAVEHRDTQSFFNMFSTDQERSAMMKQFKTYKNQTSEDVSTFMRANIKKLYNLLRYKKARQWVMCEFFYSAIDEQIFKEENEFATIIRESFPNLKNWNLTRIEWRSIRKLLGKPRRCSKVFFEEERMYLEEKRMKIRSVYEGSYLNDPSIDLKDLPAKLPRPMVVGNRVFARIRNPYDGIYSGIIDAVIPKGFRIIFDKPDIPPTLVSDTEILLDGKLDLLSIAYFIEQANSKLPSGVRPFVAAVRDSSHPHLVRDVLVSRKIERSGGPLMGPNDERLNGKNAEMVGNFPLKFLVNLVKLTKLIDIKKGLIRQLNELNADAEIQNMTSDKYSKAFQEKYAKTIIDLEHVNQNIDINMNGIQDHHMYFSSNDISTSNMKPEAVRQMCSQQAGRFVEHCNQGLNVENVHALTLIQSLTAVLLQVRTMGTQKISAVDLQSLGDAISEIRTAIHPRNVAFFQDYVEVHMKQFHTIMLESGALAGTVSNRK
notes: Tested in a yeast two-hybrid assay; The fusion partners and construct limits are not described
B2: LIN-15A protein (other, C. elegans, UniProt Q27365 1-719, looked up)
chain: MLAPAAPAKDVVSADEKEEIIAKRKFRMKNVDAMRMSSLANDRMAFNKKCNALAMKFVKSAGIGTDALQLTCFQELVRHFNPIAAVVVGVKREPNSNVQAEKKTIPKVKTIQTPTQSMESVRLLQEKKASATEEQSAESASIMKHFANTIPNSTPTQSVKDVLTAAASKGQFKSSAEIFSHFPSEPSPSKPRATREGSQPSDYTYCTYLTPCILCEKALLMRESIAMTDNEAVKVLMAAVMSGHFRMATAEKAIRHERLRMCYDHVDFVYEMMCDAFEAKTESEINEMPPDRLMRGHDIYRALKRVGDLHKGKVTSNTPLYSFKNSIKSYYRNHVPRMVNGSLSKPSPKPFSELVALLQSVPPSTNLNELLNHNLSLSDADKQELIQLINGKDNRFTSRRRKIEDILDNKFAAAAAKAYRDHSEDAPSEPYIPNQSEMQNTVERRKRKLHSPEQDDAGSSSISWNAKKTKTPIDYVHLATRVLEGHSIADEALLHKSKVSYARNAFGEKPSSPTPPSAPLKFCVVNGKKYLRFENGTGPPKVVVQGNVVLRTNTLKDALTTAPRAQNQPSTSTDSSSSSEMEGIRQSFGAPQKEEEEEELVPTLLQNKPTHVESSSPVEKKPPTKTNVEKPAVRLGRMLTTAFGSMSYRTRKSVENKTDLLNQPTSASPRRMIKVVRNRNPHLAKQVAAAPSEPKHIPPTHMEKKPEELLMDPKPEPIF
notes: as for B1

The target of the test “LIN-15A protein” is B2. Nature of the test: yeast two-hybrid.
For another test, the target named is T1, LIN-15B protein. The test is described as follows: yeast two-hybrid.

As to B1, the binding result in the test with LIN-15A protein and with LIN-15B protein was “no binding” in each case. On to B2, for which the binding result with LIN-15B protein was “no binding”.
